Here are results for one protein from patent publication US20170246255.

The target in one data set is T1, GLP-1 (3DMA).
T1 chain: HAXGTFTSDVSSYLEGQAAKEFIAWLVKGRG

For the next data set, the target named is T2, GLP-1 (7-37).
T2 chain: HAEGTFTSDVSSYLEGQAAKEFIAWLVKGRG

For another data set, the target named is T3, GLP-1 (BM).
T3 chain: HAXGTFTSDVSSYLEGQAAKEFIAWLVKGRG

The target of data set [1] is T4, TLE-modified GLP-1 (7-37) analog.
T4 chain: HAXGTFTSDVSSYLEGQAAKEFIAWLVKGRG

B1: human DPP IV (protein)
chain: SRKTYTLTDYLKNTYRLKLYSLRWISDHEYLYKQENNILVFNAEYGNSSVFLENSTFDEFGHSINDYSISPDGQFILLEYNYVKQWRHSYTASYDIYDLNKRQLITEERIPNNTQWVTWSPVGHKLAYVWNNDIYVKIEPNLPSYRITWTGKEDIIYNGITDWVYEEEVFSAYSALWWSPNGTFLAYAQFNDTEVPLIEYSFYSDESLQYPKTVRVPYPKAGAVNPTVKFFVVNTDSLSSVTNATSIQITAPASMLIGDHYLCDVTWATQERISLQWLRRIQNYSVMDICDYDESSGRWNCLVARQHIEMSTTGWVGRFRPSEPHFTLDGNSFYKIISNEEGYRHICYFQIDKKDCTFITKGTWEVIGIEALTSDYLYYISNEYKGMPGGRNLYKIQLSDYTKVTCLSCELNPERCQYYSVSFSKEAKYYQLRCSGPGLPLYTLHSSVNDKGLRVLEDNSALDKMLQNVQMPSKKLDFIILNETKFWYQMILPPHFDKSKKYPLLLDVYAGPCSQKADTVFRLNWATYLASTENIIVASFDGRGSGYQGDKIMHAINRRLGTFEVEDQIEAARQFSKMGFVDNKRIAIWGWSYGGYVTSMVLGSGSGVFKCGIAVAPVSRWEYYDSVYTERYMGLPTPEDNLDHYRNSTVMSRAENFKQVEYLLIHGTADDNVHFQQSAQISKALVDVGVDFQAMWYTDEDHGIASSTAHQHIYTHMSHFIKQCFSLP
Take B1: the “cleavage of the peptide by the enzyme, HPLC/MS” value with GLP-1 (3DMA) is “both GLP-1 (3DMA) and GLP-1 (BM) were resistant to cleavage by DPP IV in comparison to native GLP-1”; with GLP-1 (BM), “both GLP-1 (3DMA) and GLP-1 (BM) were resistant to cleavage by DPP IV in comparison to native GLP-1”. For the same protein, the entries for the “cleavage of the peptide by the enzyme, HPLC/MS after two hours” value (with GLP-1 (7-37); in data set [1]) were “treatment with DPP IV resulted in a time dependent degradation of GLP-1” and “TLE-modified GLP-1 is resistant to degradation by DPP IV”, respectively.
